Our source for the Kd values is publication PMC13077772 (2025).

The target in the assay is melanoma-associated antigen 3 (MAGE-A3) peptide presented by HLA-A*01:01 (human | ). In words: SPR.

B1: mage-513, purified soluble protein (designed binder)
chain: LTVEEAIRLLLETQRRYPELGPEERQVADGALRVASLLLDIIATRRLLGDDDKELEKQLLKRIERLFTAPLPERRRLVEELEEPVLEEAAQAARELVKREQQ
modifications: heavy chain HLA-A*01:01 ectodomain taken by convention from the MAGE-A3/HLA-A1 structure 5BRZ (candidate P04439 is a different allele, A*03:01)
Regarding B1, binding was characterised by a dissociation constant (Kd) of 29 nM.
